In US20260001928A1 (CORTERIA PHARMACEUTICALS, priority 2022, published 2026):
*1 amine or outer side, *2 acyl side, *3 side chain or, on linkers, in order; H or OH if unused. Side-chain parts run from the residue outwards. [ ]: non-standard residue; d: D form. The star is where a group is joined. C18 diacid = O=C(O)CCCCCCCCCCCCCCCCC(=O)*; γGlu = O=C(O)[C@H](CCC(=O)[*:2])N[*:1]; Api = NC1(C(=O)O)CCNCC1; Pentanoyl = CCCCC(=O)*; AEEA = NCCOCCOCC(=O)O; Aib = CC(C)(N)C(=O)O

T1: CRF1R receptor (UniProt P34998 24-415, limits assumed)
T1 sequence (looked up): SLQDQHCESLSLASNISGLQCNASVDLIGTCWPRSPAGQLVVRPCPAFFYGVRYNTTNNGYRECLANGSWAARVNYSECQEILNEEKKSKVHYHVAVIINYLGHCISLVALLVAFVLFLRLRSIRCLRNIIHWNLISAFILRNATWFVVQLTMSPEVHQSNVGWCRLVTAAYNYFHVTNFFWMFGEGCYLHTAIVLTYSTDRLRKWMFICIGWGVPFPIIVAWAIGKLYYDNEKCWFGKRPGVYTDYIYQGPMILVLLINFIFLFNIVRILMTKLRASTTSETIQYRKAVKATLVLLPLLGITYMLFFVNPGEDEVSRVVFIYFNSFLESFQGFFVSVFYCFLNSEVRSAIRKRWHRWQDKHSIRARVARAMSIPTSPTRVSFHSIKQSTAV


How the values were obtained:
[1] = biological target: human corticotropin-releasing factor 2a (CRF2a receptor) (human), Q13324; test: cell-based or functional assay
CRF1R receptor = biological target: T1, CRF1R receptor; test: cell-based or functional assay

human corticotropin-releasing factor 2a (CRF2a receptor) (human), Q13324, sequence (Q13324 20-411): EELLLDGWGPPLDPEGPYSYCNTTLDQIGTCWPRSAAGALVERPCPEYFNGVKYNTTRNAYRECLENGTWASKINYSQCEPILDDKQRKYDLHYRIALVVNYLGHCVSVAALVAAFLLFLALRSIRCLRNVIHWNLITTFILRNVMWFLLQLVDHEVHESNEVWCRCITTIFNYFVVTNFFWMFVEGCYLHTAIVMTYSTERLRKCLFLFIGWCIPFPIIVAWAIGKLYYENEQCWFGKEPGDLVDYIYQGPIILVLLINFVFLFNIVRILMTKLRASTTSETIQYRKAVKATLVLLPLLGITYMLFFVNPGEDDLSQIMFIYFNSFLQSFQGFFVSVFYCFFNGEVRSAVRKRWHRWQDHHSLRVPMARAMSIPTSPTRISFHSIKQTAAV

EC50 [nM] (cAMP) [1]	Emax (% I) (CRF1R receptor) [%]	EC50 (CRF1R receptor) [nM]	Binder
2.2	9		Ac-IVLSLD[dV]PIKLK([AEEA-AEEA-γGlu-C18 diacid])KILLEQEKQK[Aib]QREQAETN[Api]QILAQV-NH2 (SMILES CC[C@H](C)[C@H](NC(C)=O)C(=O)N[C@H](C(=O)N[C@@H](CC(C)C)C(=O)N[C@@H](CO)C(=O)N[C@@H](CC(C)C)C(=O)N[C@@H](CC(=O)O)C(=O)N[C@@H](C(=O)N1CCC[C@H]1C(=O)N[C@H](C(=O)N[C@@H](CCCCN)C(=O)N[C@@H](CC(C)C)C(=O)N[C@@H](CCCCNC(=O)COCCOCCNC(=O)COCCOCCNC(=O)CC[C@H](NC(=O)CCCCCCCCCCCCCCCCC(=O)O)C(=O)O)C(=O)N[C@@H](CCCCN)C(=O)N[C@H](C(=O)N[C@@H](CC(C)C)C(=O)N[C@@H](CC(C)C)C(=O)N[C@@H](CCC(=O)O)C(=O)N[C@@H](CCC(N)=O)C(=O)N[C@@H](CCC(=O)O)C(=O)N[C@@H](CCCCN)C(=O)N[C@@H](CCC(N)=O)C(=O)N[C@@H](CCCCN)C(=O)NC(C)(C)C(=O)N[C@@H](CCC(N)=O)C(=O)N[C@@H](CCCNC(=N)N)C(=O)N[C@@H](CCC(=O)O)C(=O)N[C@@H](CCC(N)=O)C(=O)N[C@@H](C)C(=O)N[C@@H](CCC(=O)O)C(=O)N[C@H](C(=O)N[C@@H](CC(N)=O)C(=O)NC1(C(=O)N[C@@H](CCC(N)=O)C(=O)N[C@H](C(=O)N[C@@H](CC(C)C)C(=O)N[C@@H](C)C(=O)N[C@@H](CCC(N)=O)C(=O)N[C@H](C(N)=O)C(C)C)[C@@H](C)CC)CCNCC1)[C@@H](C)O)[C@@H](C)CC)[C@@H](C)CC)C(C)C)C(C)C) [SEQ ID NO 196]
0.21	42	180	Pentanoyl-VLSLD[dV]PIGLK([γGlu-C18 diacid])KILLEQEKQKKQREQAETN[Aib]QILAQV-NH2 (SMILES CCCCC(=O)N[C@H](C(=O)N[C@@H](CC(C)C)C(=O)N[C@@H](CO)C(=O)N[C@@H](CC(C)C)C(=O)N[C@@H](CC(=O)O)C(=O)N[C@@H](C(=O)N1CCC[C@H]1C(=O)N[C@H](C(=O)NCC(=O)N[C@@H](CC(C)C)C(=O)N[C@@H](CCCCNC(=O)CC[C@H](NC(=O)CCCCCCCCCCCCCCCCC(=O)O)C(=O)O)C(=O)N[C@@H](CCCCN)C(=O)N[C@H](C(=O)N[C@@H](CC(C)C)C(=O)N[C@@H](CC(C)C)C(=O)N[C@@H](CCC(=O)O)C(=O)N[C@@H](CCC(N)=O)C(=O)N[C@@H](CCC(=O)O)C(=O)N[C@@H](CCCCN)C(=O)N[C@@H](CCC(N)=O)C(=O)N[C@@H](CCCCN)C(=O)N[C@@H](CCCCN)C(=O)N[C@@H](CCC(N)=O)C(=O)N[C@@H](CCCNC(=N)N)C(=O)N[C@@H](CCC(=O)O)C(=O)N[C@@H](CCC(N)=O)C(=O)N[C@@H](C)C(=O)N[C@@H](CCC(=O)O)C(=O)N[C@H](C(=O)N[C@@H](CC(N)=O)C(=O)NC(C)(C)C(=O)N[C@@H](CCC(N)=O)C(=O)N[C@H](C(=O)N[C@@H](CC(C)C)C(=O)N[C@@H](C)C(=O)N[C@@H](CCC(N)=O)C(=O)N[C@H](C(N)=O)C(C)C)[C@@H](C)CC)[C@@H](C)O)[C@@H](C)CC)[C@@H](C)CC)C(C)C)C(C)C) [SEQ ID NO 195]
